Molecular target: the molecule itself
Experiment: Western blot of conditioned media, reducing against non-reducing SDS-PAGE
Method: Samples were combined with 2× SDS sample buffer with β-mercapatoethanol and boiled for 2 minutes. After boiling, the samples were loaded onto either a 4-20% gradient gel or 6% SDS gel. Gels were then transferred to nitrocellulose using an Invitrogen blotting apparatus (Invitrogen, Carlsbad, Calif.) and transfer buffer as provided by Invitrogen (Invitrogen, Carlsbad, Calif.). Gels were transferred for 2 hours at 30V under constant current. Nitrocellulose blots were blocked in 5% non-fat dry milk for 1 hour at room temperature. The blots were incubated with 0.5 μg/mL peptide polyclonal antibody overnight at 4° C. After incubation with the primary antibody, the blots were washed 3 times for 10 minutes each in washing buffer (1% Triton×100 (v/v), 0.1% SDS (w/v) in PBS, calcium and magnesium free) and then incubated for 30 minutes with mouse anti rabbit IgG conjugated to horseradish peroxidase (Santa Cruz Biotech, Santa Cruz, Calif.). The blots were washed 3 times for 10 minutes each in wash buffer and developed with the chemiluminescence reagent, ECL. (Amersham, Piscataway, N.J.). The blots were exposed to Kodak film and developed using a film developer.
The conditioned media from both COS and HEK293 transfectants were analyzed by Western blot under reducing and non-reducing conditions to assess whether CLCA1 exists as a multimer in the secreted milieu. […]

B1: human CLCA1 (Calcium Activated Chloride Channel 1) (other)
chain: NSLIQLNNNGYEGIVVAIDPNVPEDETLIQQIKDMVTQASLYLFEATGKRFYFKNVAILIPETWKTKADYVRPKLETYKNADVLVAESTPPGNDEPYTEQMGNCGEKGERIHLTPDFIAGKKLAEYGPQGRAFVHEWAHLRWGVFDEYNNDEKFYLSNGRIQAVRCSAGITGTNVVKKCQGGSCYTKRCTFNKVTGLYEKGCEFVLQSRQTEKASIMFAQHVDSIVEFCTEQNHNKEAPNKQNQKCNLRSTWEVIRDSEDFKKTTPMTTQPPNPTFSLLQIGQRIVCLVLDKSGSMATGNRLNRLNQAGQLFLLQTVELGSWVGMVTFDSAAHVQSELIQINSGSDRDTLAKRLPAAASGGTSICSGLRSAFTVIRKKYPTDGSEIVLLTDGEDNTISGCFNEVKQSGAIIHTVALGPSAAQELEELSKMTGGLQTYASDQVQNNGLIDAFGALSSGNGAVSQRSIQLESKGLTLQNSQWMNGTVIVDSTVGKDTLFLITWTTQPPQILLWDPSGQKQGGFVVDKNTKMAYLQIPGIAKVGTWKYSLQASSQTLTLTVTSRASNATLPPITVTSKTNKDTSKFPSPLVVYANIRQGASPILRASVTALIESVNGKTVTLELLDNGAGADATKDDGVYSRYFTTYDTNGRYSVKVRALGGVNAARRRVIPQQSGALYIPGWIENDEIQWNPPRPEINKDDVQHKQVCFSRTSSGGSFVASDVPNAPIPDLFPPGQITDLKAEIHGGSLINLTWTAPGDDYDHGTAHKYIIRISTSILDLRDKFNESLQVNTTALIPKEANSEEVFLFKPENITFENGTDLFIAIQAVDKVDLKSEISNIARVSLFIPPQTPPETPSPDETSAPCPNIHINSTIPGIHILKIMWKWIGELQLSIA
notes: 914 amino acids; also called hCLCA1; soluble CLCA1
- binding result: binds
